Experiments:
purified protein = substrate: CC(=O)O; assay: purified protein; conditions: acetyl-CoA-forming direction (acetate limiting), 37°C
[1] = substrate: O=P(O)(O)OP(=O)(O)O; assay: ATP formation coupled to hexokinase / glucose-6-phosphate dehydrogenase, NADP+ reduction; format: biochemical, Syntrophus aciditrophicus; conditions: acetate-forming direction (pyrophosphate limiting), AMP and acetyl-CoA co-substrates, 37°C, enzyme purified without ammonium sulfate fractionation
Description: ATP formation coupled to hexokinase / glucose-6-phosphate dehydrogenase, NADP+ reduction on Purified Acs1 (native AMP-forming, acetyl-CoA synthetase)

[2] = substrate: CC(C)(COP(=O)(O)OP(=O)(O)OC[C@H]1O[C@@H](n2cnc3c(N)ncnc32)[C@H](O)[C@@H]1OP(=O)(O)O)[C@@H](O)C(=O)NCCC(=O)NCCS; assay: coupled enzyme assay, NAD(H) oxidation; format: biochemical, Syntrophus aciditrophicus; conditions: acetyl-CoA-forming direction (CoA limiting), 37°C
Description: coupled enzyme assay, NAD(H) oxidation on Purified Acs1 (native AMP-forming, acetyl-CoA synthetase)

[3] = substrate: CC(C)(COP(=O)(O)OP(=O)(O)OC[C@H]1O[C@@H](n2cnc3c(N)ncnc32)[C@H](O)[C@@H]1OP(=O)(O)O)[C@@H](O)C(=O)NCCC(=O)NCCS; assay: coupled enzyme assay, NAD(H) oxidation; format: biochemical, Syntrophus aciditrophicus; conditions: acetyl-CoA-forming direction (CoA limiting), 37°C; remark: listed apart in the source
Description: coupled enzyme assay, NAD(H) oxidation on Recombinant Acs1 (SYN_02635 gene product)

Row | Protein | Km (purified protein) | Km [1] | Km [2] | Km [3]
1 | Purified Acs1 (native AMP-forming, acetyl-CoA synthetase) (Syntrophus aciditrophicus SB) (protein, native, purified from crotonate-grown pure-culture cell extracts; single band ~74 kDa on denaturing gel; untagged) MGEESILKEFYPVPERIKAKAWVKGRGEYDKLYAESIADSAAWWAKQADEILTFYKKWDKVEDFNFDIRKGPIHVKYFEGAKLNVSYNCLDRHLATKGDKVAIQWEGNEPGEQKAYTYKDLHTEVCKFANVLKKHGIKRGDRVCIYTPMVVEAAIAMLACTRIGAVHAIVFGGFSSDALAVRIQDAQAKLLVVCDGTFRGAKAVPQKKDADVALKECPTIEKVIVVRRVGDKIACDMTPGRDLWWHDEMATVDANCECEQMDAEDTLFILYTSGSTGQPKGALHTTAGYLLYAAYTSKFAFDLHDEDIHWCTADIGWVTGHSYVVYGPLALGATSIMFEGVPNYPTYSRFWQVVEKYKVTSFYTAPTAIRAIAKEGDEWLKGIDLSSLRVLSSVGEPLNPEAWQWFYEKIGNSQCPIVDTWWQTETGGHMILPLPGAIDIKPAKPALPIMGVIPTLVDDQTGEELKNMEANGALCFKTAWPGITRTIYGDHKRYEETYFEPYPGNYFSGDGALRDKDGYYRITGRIDDVINVSGHRMGTAEIEATLNAHEKVAESAVVGYPHEVKGQSIYAYITLKTGFEPSEDLKKELTQYVRTIIGPIATPEKIQWADGLPKTRSGKIMRRILKKVAANELGDLGDTSTLADPAVVDDLVKNRL | 0.59 ± 0.2 mM | 0.25 ± 0.02 mM | 0.26 ± 0.1 mM | 
2 | Recombinant Acs1 (SYN_02635 gene product) (Syntrophus aciditrophicus SB) (protein) MGEESILKEFYPVPERIKAKAWVKGRGEYDKLYAESIADSAAWWAKQADEILTFYKKWDKVEDFNFDIRKGPIHVKYFEGAKLNVSYNCLDRHLATKGDKVAIQWEGNEPGEQKAYTYKDLHTEVCKFANVLKKHGIKRGDRVCIYTPMVVEAAIAMLACTRIGAVHAIVFGGFSSDALAVRIQDAQAKLLVVCDGTFRGAKAVPQKKDADVALKECPTIEKVIVVRRVGDKIACDMTPGRDLWWHDEMATVDANCECEQMDAEDTLFILYTSGSTGQPKGALHTTAGYLLYAAYTSKFAFDLHDEDIHWCTADIGWVTGHSYVVYGPLALGATSIMFEGVPNYPTYSRFWQVVEKYKVTSFYTAPTAIRAIAKEGDEWLKGIDLSSLRVLSSVGEPLNPEAWQWFYEKIGNSQCPIVDTWWQTETGGHMILPLPGAIDIKPAKPALPIMGVIPTLVDDQTGEELKNMEANGALCFKTAWPGITRTIYGDHKRYEETYFEPYPGNYFSGDGALRDKDGYYRITGRIDDVINVSGHRMGTAEIEATLNAHEKVAESAVVGYPHEVKGQSIYAYITLKTGFEPSEDLKKELTQYVRTIIGPIATPEKIQWADGLPKTRSGKIMRRILKKVAANELGDLGDTSTLADPAVVDDLVKNRL | 0.96 ± 0.02 mM |  |  | 0.21 ± 0.05 mM
